Measured values as given in the supplement of paper PMC6379048.
pEC50: −log10 of the molar value.

Legend:
Experiment in all cases: EC50 of free RNA motif oligo competing protein binding to immobilised probe
[1] = target: T1, CPSF2 (UniProt Q9P2I0)
T1 sequence: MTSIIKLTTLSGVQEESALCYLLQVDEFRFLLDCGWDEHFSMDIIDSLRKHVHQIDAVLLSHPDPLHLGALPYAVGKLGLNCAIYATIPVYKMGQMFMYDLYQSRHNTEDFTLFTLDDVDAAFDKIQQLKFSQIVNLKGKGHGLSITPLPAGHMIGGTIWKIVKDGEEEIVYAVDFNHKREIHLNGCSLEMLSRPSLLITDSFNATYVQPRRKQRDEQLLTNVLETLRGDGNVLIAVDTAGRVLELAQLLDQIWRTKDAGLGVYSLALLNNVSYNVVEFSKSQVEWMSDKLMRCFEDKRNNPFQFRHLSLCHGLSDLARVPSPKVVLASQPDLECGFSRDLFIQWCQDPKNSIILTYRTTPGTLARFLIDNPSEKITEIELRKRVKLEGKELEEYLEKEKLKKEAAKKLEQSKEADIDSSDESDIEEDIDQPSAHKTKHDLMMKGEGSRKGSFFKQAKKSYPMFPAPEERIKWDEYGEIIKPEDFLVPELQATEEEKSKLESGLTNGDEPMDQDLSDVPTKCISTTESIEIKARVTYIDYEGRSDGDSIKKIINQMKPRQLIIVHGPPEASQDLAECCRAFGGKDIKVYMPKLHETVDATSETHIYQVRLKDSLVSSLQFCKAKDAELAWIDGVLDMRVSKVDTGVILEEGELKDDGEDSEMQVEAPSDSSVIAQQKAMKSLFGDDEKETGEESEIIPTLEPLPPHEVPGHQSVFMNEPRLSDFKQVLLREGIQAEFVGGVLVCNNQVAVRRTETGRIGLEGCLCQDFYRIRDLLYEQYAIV
How it was run: (§1)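 HEK293-FT lysate (2.5 mg protein/well) was treated with free RNA oligos (0 nM to 30 μM) for 1 h at 4°C, then with the same oligos on NHS-Sepharose beads for 30 min at 4°C. Bound proteins were quantified by label-free LC-MS/MS relative to the control. EC50 came from a four-parameter log-logistic fit, and Kd is EC50 times a protein-dependent depletion factor.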

[2] = target: T2, CSTF3 (UniProt Q12996)
T2 sequence: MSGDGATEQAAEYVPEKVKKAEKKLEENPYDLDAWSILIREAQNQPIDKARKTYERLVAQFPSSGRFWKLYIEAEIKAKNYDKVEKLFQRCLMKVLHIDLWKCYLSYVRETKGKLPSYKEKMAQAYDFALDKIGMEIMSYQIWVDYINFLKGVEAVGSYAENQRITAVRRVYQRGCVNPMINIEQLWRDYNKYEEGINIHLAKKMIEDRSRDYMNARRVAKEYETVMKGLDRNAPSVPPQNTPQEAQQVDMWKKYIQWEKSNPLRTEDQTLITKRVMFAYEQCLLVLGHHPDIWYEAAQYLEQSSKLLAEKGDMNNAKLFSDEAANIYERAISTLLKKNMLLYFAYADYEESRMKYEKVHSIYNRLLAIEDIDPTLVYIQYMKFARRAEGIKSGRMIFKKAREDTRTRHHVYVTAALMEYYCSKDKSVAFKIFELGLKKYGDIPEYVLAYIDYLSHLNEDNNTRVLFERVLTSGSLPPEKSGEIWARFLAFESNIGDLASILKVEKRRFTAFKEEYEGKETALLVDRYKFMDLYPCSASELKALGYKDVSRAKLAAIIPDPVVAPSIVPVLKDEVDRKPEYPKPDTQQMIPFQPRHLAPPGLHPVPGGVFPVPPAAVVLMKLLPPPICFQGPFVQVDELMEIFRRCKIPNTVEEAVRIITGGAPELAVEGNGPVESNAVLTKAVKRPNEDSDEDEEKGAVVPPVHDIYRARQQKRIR
How it was run: as §1

[3] = target: T3, LSM7 (UniProt Q9UK45)
T3 sequence: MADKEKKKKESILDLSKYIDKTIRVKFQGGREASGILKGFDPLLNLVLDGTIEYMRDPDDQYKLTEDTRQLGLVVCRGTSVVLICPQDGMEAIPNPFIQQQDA
How it was run: as §1

[4] = target: T4, XAB2 (UniProt Q9HCS7)
T4 sequence: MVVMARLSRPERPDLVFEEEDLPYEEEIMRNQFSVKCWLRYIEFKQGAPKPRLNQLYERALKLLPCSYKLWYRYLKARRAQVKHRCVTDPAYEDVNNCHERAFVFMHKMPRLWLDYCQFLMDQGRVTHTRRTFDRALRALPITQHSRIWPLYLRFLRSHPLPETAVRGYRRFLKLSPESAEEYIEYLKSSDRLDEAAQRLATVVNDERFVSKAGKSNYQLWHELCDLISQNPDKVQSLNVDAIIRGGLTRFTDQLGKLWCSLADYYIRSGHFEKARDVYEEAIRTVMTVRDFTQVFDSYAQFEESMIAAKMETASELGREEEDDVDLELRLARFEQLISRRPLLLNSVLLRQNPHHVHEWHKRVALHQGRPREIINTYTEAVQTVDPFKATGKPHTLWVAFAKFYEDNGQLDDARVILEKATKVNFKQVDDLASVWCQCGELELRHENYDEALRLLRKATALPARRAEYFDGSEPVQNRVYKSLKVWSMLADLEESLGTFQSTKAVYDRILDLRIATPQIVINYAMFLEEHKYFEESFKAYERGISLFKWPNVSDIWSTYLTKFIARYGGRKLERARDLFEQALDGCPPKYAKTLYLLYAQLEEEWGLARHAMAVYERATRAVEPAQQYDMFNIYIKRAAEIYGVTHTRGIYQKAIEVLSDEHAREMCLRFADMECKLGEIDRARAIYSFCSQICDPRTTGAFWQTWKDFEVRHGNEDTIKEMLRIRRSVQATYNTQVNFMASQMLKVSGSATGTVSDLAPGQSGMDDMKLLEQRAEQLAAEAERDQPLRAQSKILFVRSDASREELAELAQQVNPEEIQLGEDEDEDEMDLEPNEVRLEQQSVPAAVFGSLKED
How it was run: as §1

[5] = target: LRPPRC (UniProt P42704)
How it was run: as §1

Sequence: UAUUUAU
- pEC50 [1]: 5.82
- pEC50 [2]: 6.22
- pEC50 [3]: 6.52
- pEC50 [4]: 6.22

Sequence: CUGUCCU
- pEC50 [5]: 5.64

Sequence: AAUAAA
- pEC50 [1]: 7.17
- pEC50 [2]: 7.09
- pEC50 [5]: 5.54
- pEC50 [3]: 6.18
- pEC50 [4]: 5.86
